In test [1] the target is apCC-Hex-LLIA. Kind of test: AUC.
Test [2] concerns the target apCC-Hex-LLIA. The test is described as follows: crystal structure.

For orientation: stoichiometry N means the number of molecules, sites or subunits per partner or assembly. In the case of apCC-Hex-LLIA (peptide), the stoichiometry N with apCC-Hex-LLIA [1] and in the test with apCC-Hex-LLIA [2] was 6 in each case.

Values taken from paper doi:10.1101/2023.08.25.554789.
